B1: Humanized 31C8-1.1 (antibody, human IgG2, kappa, V domains shown)
VH: EVQLVQSGAEVKKPGATVKISCKASGYIFIDSEMHWVQQAPGKGLEWMGAIDPETGDTVYAEKFQGRVTITADKSSSTAYMELSSLRSEDTAVYYCTGSTTDYYFAYWGQGTLVTVSS
VL: DIQMTQSPSSLSASVGDRVTITCRSSKSLLHSNGIIYLYWYQQKPGKAPKLLIYQLSNLASGVPSRFSSSGSGTDFTLTISSLQPEDFATYYCAQNLELPFTFGQGTKVEIKR
notes: also called hz31C8-1.1; hz31C81-1.1
B2: Humanized 31C8-1.2 (antibody, human IgG2, kappa, V domains shown)
VH: B1 VH with E1Q, E10K, E62K, Q65K
VL: B1 VL
notes: also called hz31C8-1.2; hz31C81-1.2
B3: RG6149 (antibody Ab2 in CN104334582, prepared in-house) (antibody, human IgG2, kappa, V domains shown)
VH: EVQLVQSGAEVKKPGESLKISCKGSGYSFTNYWIGWVRQMPGKGLEWMGIIYPGNSDTRFSPSFQGQVTISADKSITTAYLQWSSLKASDTAMYYCARHGTSSDYYGLDVWGQGTTVTVSS
VL: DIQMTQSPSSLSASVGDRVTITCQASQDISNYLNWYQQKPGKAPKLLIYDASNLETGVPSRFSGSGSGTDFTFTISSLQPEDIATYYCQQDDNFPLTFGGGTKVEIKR
notes: Control anti-ST2 antibody
B4: GSK3772847 (antibody STLM208 in CN104411333, prepared in-house) (antibody, human IgG2, kappa, V domains shown)
VH: EVQLLESGGGLVQPGGSLRLSCAASGFTFSIYDMIWVRQAPGKGLEWVSSIRGEGGGTYYADSVKGRFTISRDNSKNTLYLQMNSLRAEDTAVYYCARDPWSTEGSFFVLDYWGQGTLVTVSS
VL: EIVLTQSPATLSLSPGERATLSCRASQSVDDDLAWYQQKPGQAPRLLIYDASNRATGIPARFSGSGSGTDFTLTISSLEPEDFAVYYCQQYITAPLTFGQGTKVEIKR
notes: Control anti-ST2 antibody
B5: Chimeric 31C8 (antibody, human IgG2, kappa, V domains shown)
VH: QVQLQQSGPELVRPGASVTLSCKASGYIFIDSEMHWVKQTPVHGLEWIGAIDPETGDTVYNQKFKGKATLTADKSSSTASMELSSLTSEDSAVYYCTGSTTDYYFAYWGQGTTLTVSS
VL: DIVMTQAAFSNPVTLGTSASISCRSSKSLLHSNGIIYLYWYLQKPGQSPQLLIYQMSNLASGVPDRFSSSGSGTDFTLRISRVEAEDVGVYYCAQNLELPFTFGSGTKLEIKR
notes: also called xi31C8
B6: Chimeric 7D1 (antibody, human IgG2, kappa, V domains shown)
VH: QVQLQQSGAELVRPGASVTLSCKASGYTFTDYEMHWVKQTPVHGLDWIGTIDPETGDTAYNQKFKGRATLTADKSSSTAYMELSSLTSEDSAVYYCTRYSYTNSPYGMDYWGQGTSVTVSS
VL: DVVMTQTPKFLLVSAGDRVTITCKASQSVSNDVAWYQQKPGQSPKLLIYYASNRYTGVPDRFTGSGYGTDFTFTINTVQAEDLAVYFCQQDYSSPYTFGGGTKLEIKR
notes: also called xi7D1
B7: Chimeric 17E2 (antibody, human IgG2, kappa, V domains shown)
VH: QVQLQQSGAELVRPGASVTLSCKASGYTFTDYEMHWVKQTPVLGLEWIGAIDPETGDTAYNQKFKGKATLTADKSSSTAYMELSSLASEDSAVYYCIRVDSNYDYFDYWGQDTTLTVSS
VL: DIVLTQSPPILSASPGEKVTMTCRASSSVSYMHWYQQKPGSSPKPWIYDTSNLASGVPARFSGSGSGTSYSLTISRVEAEDAATYYCQQWSSNPLTFGAGTKLELKR
notes: also called xi17E2
B8: Chimeric 3C6 (antibody, human IgG2, kappa, V domains shown)
VH: QVQLQQSGAEVVRPGASVTLSCKASDYTITDYEMHWVKQTPVHGLEWIGAIDPETGDTAYSQNFKGKATLTADESSSTAYMELSSLTSEDSAVYYCSRSATDYYFASWGQGTTLTVSS
VL: B5 VL with F9I, I21M, I36T, Q47H, R79K
notes: also called xi3C6
B9: Chimeric 8F4 (antibody, human IgG2, kappa, V domains shown)
VH: B5 VH with P9A, Y27H, I30T, S32Y, H35Q, I51F, V59A, S80Y, T97S, T113S
VL: B5 VL with I2V, A7T
notes: also called xi8F4
B10: Chimeric 26A1 (antibody, human IgG2, kappa, V domains shown)
VH: B5 VH with P9A, G26D, I30T, M34I, P41L, V59A, S80Y, D90G, T97S, Y103C
VL: B5 VL
notes: also called xi26A1

Data on ten molecules can be found in patent US20230272086A1 (CHIA TAI TIANQING PHARMACEUTICAL GROUP, published 2023).

Changes are numbered by the printed parent chain.

One test addresses T1, recombinant protein containing hST2 extracellular domain with mouse antibody heavy chain Fc tag (hST2-ECD-mFc) (human).
T1 construct: Used for SPR and for ELISA of chimeric and humanized antibodies; also called human ST2 antigen
T1 chain: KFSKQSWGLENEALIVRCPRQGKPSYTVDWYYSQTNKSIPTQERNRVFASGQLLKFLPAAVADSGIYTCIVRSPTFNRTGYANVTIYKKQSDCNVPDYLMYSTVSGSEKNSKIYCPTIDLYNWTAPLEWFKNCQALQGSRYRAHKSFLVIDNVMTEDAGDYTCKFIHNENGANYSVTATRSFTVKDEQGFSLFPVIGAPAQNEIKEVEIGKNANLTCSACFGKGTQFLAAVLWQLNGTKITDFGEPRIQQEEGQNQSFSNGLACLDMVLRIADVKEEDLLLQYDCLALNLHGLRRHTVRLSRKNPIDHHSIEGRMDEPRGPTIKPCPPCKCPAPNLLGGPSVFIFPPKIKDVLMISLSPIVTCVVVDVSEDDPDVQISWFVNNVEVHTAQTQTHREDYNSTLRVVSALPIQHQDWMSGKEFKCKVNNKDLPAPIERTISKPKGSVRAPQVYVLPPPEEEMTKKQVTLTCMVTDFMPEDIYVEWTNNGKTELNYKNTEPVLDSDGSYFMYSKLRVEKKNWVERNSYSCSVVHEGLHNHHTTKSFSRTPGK
In words: SPR (Biacore T200), hST2-ECD-mFc captured by anti-mouse IgG on CM5, antibody as analyte, 1:1 model. The method, then: The reaction signals were detected in real time using a Biacore instrument (Cytiva, BiacoreT200), and then an association-dissociation curve was obtained. After the completion of dissociation in each cycle, the biochip was regenerated with a regeneration solution for the next capture; the procedure was repeated until the affinity of the different antibodies for ST2 was determined. The acquired data were finally analyzed using the GE BIAevaluation software with a 1:1 (Langmuir) binding model to determine the association rate constants ka (kon) and the dissociation rate constants kd (koff), and the dissociation constants KD were given by KD = kd/ka. The determined affinity of the anti-ST2 antibody for human ST2 antigen (hST2-ECD-mFc), cynomolgus monkey ST2 antigen (Cyno-ST2-his, Sino biological, 90915-C08H) and the determined affinity of the anti-ST2 chimeric antibodies for ST2 were shown in Table 5.
The humanized antibodies hz31C81-1.1 (the amino acid sequence of the heavy chain set forth in SEQ ID NO: 75 and the amino acid sequence of the light chain set forth in SEQ ID NO: 81) and hz31C8-1.2 (the amino acid sequence of the heavy chain set forth in SEQ ID NO: 77 and the amino acid sequence of the light chain set forth in SEQ ID NO: 81) were subjected to affinity, binding, blocking and cell function analyses using the methods described in Example 4, Example 5, Example 6, Example 7, Example 8, Example 9 and Example 10. In the present disclosure, “hz” and “xi” denote humanized antibodies and chimeric antibodies, respectively; for example, “hz31C81-1.1” and “hz31C81-1.2” represent humanized 31C81-1.1 and 31C81-1.2 antibodies, and “xi31C8” represents a chimeric 31C8 antibody.
One may read the Kd as the concentration at which binding is half-saturated. As to B1, the Kd was 0.0836 nM.

Turning to B2, the equilibrium dissociation constant (Kd) is 0.145 nM.

As to B3, the Kd was 0.128 nM.

For the molecule B4, the Kd was 0.0958 nM.

As for B5, the Kd came out at 0.129 nM.

The next test has as its target recombinant protein containing hST2 extracellular domain with human antibody heavy chain Fc tag (hST2-ECD-hFc) (human). The experiment in a line: competition ELISA, coated hST2-ECD-hFc, antibody then biotin-labeled hIL33 Avitag (competitor). The procedure: Whether the anti-ST2 antibodies were able to block the binding of hIL33 to hST2 was determined based on ELISA. A high-adsorption 96-well plate was coated with 2 µg/mL hST2-ECD-hFc at 100 µL/well and incubated overnight at 4° C. After the antigen not adsorbed was well washed off, the non-specific binding sites were blocked with a blocking buffer (PBST containing 1% bovine serum albumin). After the plate was washed three times with a washing buffer (PBST, PBS containing 0.05% (v/v) Tween 20), the anti-ST2 antibodies (serially diluted 2-fold from an initial concentration of 66.67 nM to 8 concentrations) were added at 100 µL/well, and the plate was incubated at 37° C. for 1 h After the plate was washed 3 times with the washing buffer, 100 µL of biotin-labeled hIL33 Avitag (with a concentration of 0.1 µg/mL) was added to each well, and the plate was incubated at 37° C. for 1 h. After the plate was washed 3 times with the washing buffer, a 1:1000 diluted secondary antibody Avidin HRP (Jackson immunoresearch, 016-030-084) was added at 100 µL/well, and the plate was incubated at room temperature for 1 h After the plate was washed with the washing buffer, the substrate TMB solution (Thermo, 00-4201-56) was added at 100 µL/well, and the plate was incubated at room temperature for 3 min. 50 µL of a stop solution (2 N H₂SO₄) was added to terminate the reactions. Colorimetric signals were generated and read at 450 nm using a plate reader (PE, Envision). The data were analyzed using GraphPad Prism5, and the IC₅₀ values were calculated.
On the technique in general: In an ELISA, binding on a coated surface is turned into a signal by an enzyme label.
Usually IC50 stands for the concentration at which inhibition is half-maximal. Regarding B6, the concentration for half-maximal inhibition (IC50) was determined as 2.9 nM.

B7: the half-maximal inhibitory concentration (IC50) amounted to 3.35 nM.

B3: the IC50 turned out to be 2.88 nM.

Consider B5, for which the IC50 turned out to be 2.5 nM.

As to B8, the IC50 was 2.52 nM.

Regarding B9, the IC50 stood at 2.79 nM.

Consider B10, for which the half-inhibitory concentration (IC50) was determined as 2.53 nM.

A further test concerns the target T1, recombinant protein containing hST2 …. In words: ELISA, plate coated with hST2-ECD-mFc. The method, then:
ST2 binding screening and analysis of antibodies were performed by ELISA using hST2-ECD-mFc (for assays of chimeric and humanized antibodies), hST2-ECD-hFc protein (for assays of hybridoma antibodies) and Cyno-ST2-his (Sino biological, 90915-C08H) as antigens. A high-adsorption 96-well plate (Costar, 9018) was coated with 2 µg/mL hST2-ECD-mFc or Cyno-ST2-his antigen at 100 µL/well and incubated overnight at 4° C. After the antigen not adsorbed was well washed off, the non-specific binding sites were blocked with a blocking buffer (PBS containing 2% bovine serum albumin). After the plate was washed three times with a washing buffer (PBS containing 0.05% (v/v) Tween 20), the anti-ST2 antibodies (serially diluted 3-fold from an initial concentration of 10 nM to 8 concentrations: 3.333 nM, 1.111 nM, 0.370 nM, 0.123 nM, 0.041 nM, 0.014 nM, 0.005 nM, and 0.002 nM) were added at 100 µL/well, and the plate was incubated at room temperature for 1 h. After the plate was washed with the washing buffer, a horseradish peroxidase (HRP)-conjugated secondary antibody was added, and the plate was incubated for another 60 min. After the plate was washed with the washing buffer, the substrate TMB solution (Thermo, 00-4201-56) was added at 100 µL/well, and the plate was incubated at room temperature for 2 min. A stop solution (2 N H₂SO₄) was added at 100 µL/well to terminate the reactions. Colorimetric signals were generated and read at 450 nm using a microplate reader (PE, Envision). The data were analyzed using GraphPad Prism5, and the EC₅₀ values were calculated.
A word on the EC50: it is the concentration giving half of the maximal effect. With B6, the EC50 worked out at 0.191 nM.

On to B7, for which the EC50 amounted to 0.235 nM.

B3: the EC50 is 0.113 nM.

With B5, the EC50 is 0.184 nM.

On to B8, for which the EC50 was determined as 0.157 nM.

For B9, the EC50 worked out at 0.172 nM.

For the molecule B10, the EC50 was found to be 0.175 nM.
